Assay: yeast display, Sf9 membrane polyspecificity reagent, FACS + sequencing; frameworks hold sequencing errors
Procedure, shortened: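 After 36–48 hours of galactose induction, yeast (Saccharomyces cerevisiae BJ5465) displaying a synthetic nanobody library were stained at 4 °C for 1 hour with 10% biotinylated, detergent-solubilized Sf9 membrane reagent. Streptavidin microbeads enriched the stained cells before FACS sorting into low and high (top ~1%) gates on anti-HA and streptavidin fluorescence. Each clone's polyreactivity label reflects its gate of origin.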

Row | Sequence | polyreactivity (PSR sort gate)
1 | QVQLVESGGGLVQAGGSLRLSCAASGRTFRRTAMGWYRQAPGKERELVAAISSRGGSTYYADSVKWRFTISRDNAKNTVYLQMNSLKPEDTAVYYCNRVLTPIWYYVPLYSQPTYYYWGQGTQVTVSS | high polyreactivity
2 | QVQLVESGGGLVQAGGSLRLSCAASGFTFGGYAMGWYRQAPGKERELVAAISGRGGRTYYADSVKGRFTISRDNAKNTVYLQMNSLKPEDTAVYYCAAPTNHWTRLSGDYWGQGTQVTVSS | high polyreactivity
3 | QVQLVESGGGLVKAGGSLRLSCAASGNTFGRNVMGWYRPAPGKERELVAAINRGGSTTYADSVKGRFTISRDNAKNTVYLQMNSLKPEDTAVYYCNAEIRGQSYRFDYWGQGTQVTVSS | high polyreactivity
4 | QVQLVESGVGLVQAGGRLRLSCAASGRIFGSNAMGWYRQAPGKERELVAAITRSGGSTYYADSVKGRFTISRDNAKNTVYLQMNSLKPEDTAVYYCAAVRTQPKYDYCGQGTQVTVSS | high polyreactivity
5 | QVQLVESGGGLVQAGGSLRLSCAASGRTFVYYAMGWYRQAPGKERELVAAISSRGGSTYYADTVKGRFTISRDYAKNSVYLQMYSLKPEDTAVYYCAAVIGPERPTSPFDFWGQGTQVTVSS | high polyreactivity
6 | QVQLVESGGGLVQAGGSLRLSCAASGSIFNYYGMGWYRQAPGKEREFVAAITSNGGTTYYADSVKGRFTISRDNAKNTVYLQMNSLKPEDTAVYYCADRPRYYWRGYDYWGLGTQVTVSS | high polyreactivity
7 | QVQLVESGGGLVKAGGSLRLSCAASGYTYPLYAMGWYRQAPGKEMELVADINIGGASTYYADSVKGRFTISRDNAKNTVYLQMNSLKPEDTAVYDCAKEYYDGYFPTFDYDYWGQGTQVTVSS | low polyreactivity
8 | QVQLVESGGGLVQAGGSLRLSCAASGSIFRGNAMGWYRQAPGKERELVAAISGSAGRTYYADSVKGRFTISRDNAKNTVYLQMNSLKPEDTAVYYCAADSFKGYDYWGQGTQVTVSS | high polyreactivity
9 | QVQLVESGGGLVQAGCSLRLSCAAPGFTLKRYAMGWYRQAPGKERELVAAISRTGGSTYHADSVKGRFTITRDNAKNTVYLQMNSLKPEVTAVYYCAAATSPGIYDHWGQGTQLTVSS | high polyreactivity
10 | QVQLVESGGGLVQAGGSLRLSCAASGSIFPWYAMGWYRPAPGKERELVADITNGSSTNYADSVKGRFTISRDNAKNTVYLQMNSLKPEDTAVYYCARDGIGADGYDYWGQGTQVTVSS | low polyreactivity
11 | QVQLVESGGGLVPAGGSLRLSCAASGRTFIKYAMGWYRQAPGKERELVAAISRSAGSTYYADSVKGRFTISRDNAKNTVYLQMNSLKPEDTAVYYCNAVTSSYLRFDYWGQGTQVSVSS | high polyreactivity
12 | QVQLVESGGGLVQSGGSLRLSCAASGRIFRFYTMGWYRQAPGKERELVAAITQRGGRTYYADSVKGRFTISRDNAKNTVYLQMNSLKPEDTAVYYCAATTTVAEYDYWGQGTQVTVSS | high polyreactivity
13 | QFQLVESGGGLVQAGGSLRLSCAASGRIFPQYAMGWSRQATGKERELVAGITSVGSTYYADSVKGRFTISRDNAKNTVYLQMNSLKPEDTAVYYCAAFYRGGDYWGQGTQVTVSS | high polyreactivity
14 | QVQLVESGGGLVQAGGSLRLSCAASGSIFVVNTLGWYRQAPGKEREFVAPISYNGGRTSYADSVKGRFTISRDNAKNTVYLQMNSLKPEDTEVYYCAAGGSVPRAYHISYFTQYDYWGQGTQVTVSS | low polyreactivity
15 | QVQLVESGGGLVQAGGSLRLSCAASGRTFYSNAMGWYRQAPGKERELVAAISSSGSSTSYADSVKGRFTMSRDNAKNTVYLQMNSLKPEDTAVYYCAVRTKRRANRDYWGQGTQVTVSS | high polyreactivity
16 | QVQLVESGGGLVQAGGSLRLSCAASGRIFRYNAMGWYRQAPGKERELVAAITSGTGTNYADSVKGRFTISRDNAKNTVYLQMNSLKPEDTAVYYCAAQPGQAWWSTDHDDYWGQGTQVTVSS | low polyreactivity
17 | QVQLVESGGGLVQAGGSLRLSCAASGSTFRDNAMGWYRQAPGTERELVAAISRRGGNTYYADSVKGRFTISRDNAKNTVYLQMNSLKPEDTAVYYCASEVKTSYSYTHDGYWGQGTKVTVSS | high polyreactivity
18 | QVQLVESGGGLVQAGGSLRLSCAASGSIYRRNAMGWYRKAPRKERELVAAISSNGGSTYYADSVKGRFTISRDNAMNTVYLQMNSLKPEDSAVYYCAASPSGWRYDYWGQGTQVTVSS | high polyreactivity
19 | QVQLVESGGGLVQAGGSLRLSCAASGIIPSYAMGWYRQAPGKERELVAGISRSGGSTYYADSVKGRFTISRDNAKNTVYLQMNSLKPEDTAVYYCAARVKVRDFKGYYWGQGTQVTVSS | high polyreactivity
20 | QVQLVESGGGLVQAGGSLRLSCAASGSIFNYNAMGWYRQEPGKERVLVATINKRAGRTYYADSVKGRFTISRDNAKNTFYLQMNSLNPEETAVYYCAAYGRNYSIYDYWGQGTQVTVSS | high polyreactivity
21 | QVQLVESGGCLVQAGGSLRLSCAASGSIFIYYAMGWYRQAPGKERELVATISVRGGSTYYADSVKGRFTISRDNAKNTVYLQMNSLKPEDTAVYYCNAVTSGTTKSAYDYWGQGTQVTVSS | high polyreactivity

Row | Sequence | polyreactivity (PSR sort gate)
22 | QVQLVESGGGLVQAGGSLRLSCAASVSIFIANVMGWYRQAPGKERELVAAITRTSSTYYADSVKGRFTISRDNAKNTVYLQMNSLKPEDTAVYYCAKLYGVVGRWYRSSYGYWGQGTQVTVSS | high polyreactivity
23 | QVQLVESGGGLVQAGGSLRLSCAASGFTLTSYAMGWYRQAPGKERELVAGISRGGITYYADSVKGRFTISRDNAKNTVYLQMNSLKPEDTAVYYCNARRTRRWPTTPEFTNFGYWGQGTQVTVSS | high polyreactivity
24 | QVQLVESGGGLVQAGGSLRLSCAASGSTFHLYAMGWYRQAPGKETEFVPAIRGRGGNTYADSVKGRFTISRDNAKNTVYLQMNSLKPEDTAVYYCAAPLLRDLRSPYSYNYWGQGTQVTVSS | low polyreactivity
25 | QVQLVESGGGLVQAGGSLRLSCAASGSTFYTYAMGWYRQAPGKERELVAAISADGGRTYYADSVKGRFTISRDNAKNTVYLQMNSLKPEDTAVYYCAAEERRWSSYRYYYWGQGTQVTVSS | high polyreactivity
26 | QVQLVESGGGLVQAGGSLRLSCAASGGIFNVNAMGWYRQAPWKERELVAAIDWSSSSTDYADSVKGRFTISRDNAKNTVYLQMNSLKPEDTAVYYCAKLAGYSPTFEYWGQGTQVTVSS | low polyreactivity
27 | QVQLVESGGGLVQAGGSLRLSCAASGSIFRSYAMGWYRQAPGKERELVAAITSGDSTYYADSVKGRFTISRDNAKNTVYLQMNSLKPEDTAVYYCATGLGSTDRSYEYWGQGTQVTVSS | low polyreactivity
28 | QVQLVESGGGLVQAGGSLRLSCAASGSIFGNAMGWYRQAPGKEREVVAAISSSGSSTYYADSVKGRFTISRDNAKNTVYFQMNSLKPEDTAVYYCAKRRRSAAPKYDYWGQGTQVTVSS | high polyreactivity
29 | QVQLVESGGGLVQAGGRLRLSCAASGSTFRYYALGWYRQAPGKERELVAVISSTGSRTNYADSVKGRFTISRDNAKNTVYLQMNSLKPEHTAVYYCAADTTRRAPGYYYWGQGTQETVSS | high polyreactivity
30 | QVQLVESGGGLVQAGGSLRLSCAASGRIFSGYAMGWYRQAPGKERELVAAITSRSGSTYYADSVKGRFTISRDNAKNTVYFQMNSLKPEDTAVYYCAAEYVRFYWYTSDYWGQGTQVTVSS | low polyreactivity
31 | QVQLVESGGGLVQAGGSLRLSCAASGSIYGYAMGWYRQAPGKERELVAAISGRGGRTYYADSVKGRFTISRDNAKNTVYLQMNSLKPEDTAVYYCNVQWRYPYHYTVDYWGQGTQVTVSS | high polyreactivity
32 | QVQVVESGGGLVQAGGRLRLSCAASGRIFYWYAMGWSRQAPGKERELVADINHGDTSTYYADSVKGRFTISRDKAKNTVYLQMNSLKPEDTAVYYCNVRSYVYSRWYQSTWGYYYWGQGTQVTVSS | high polyreactivity
33 | QVQLVESGGGLVQAGGSLRLSCAASGSTFVYYAMGWYRQAPGKEREFVAAISYSGGNTYYADSVKGRFTISRDNAMNTVYLQMNSLKPEDTAVYYCAAYYYYFYHKVIWYELDYWGQGTQVTVSS | low polyreactivity
34 | QVQLVESGGGLVQAGGSLRLSCAASGRTSAWYAMGWYRQAPGKERELVADISGSADSTYYADSVKGRFTISRDNAKNTVYLQMNSLKPEDTAVYYCATSISTPSGDPFDYWGQGTQVTVSS | low polyreactivity
35 | QVQLVESGGGLVQAGGSLRLSCAASGIIFRYNTMGWYRQAPGKERELVAAISKRGGSTYYADSVKGRFTISRDNAKNTVYLQMNSLKPEDTAVYYCAARYYSASYYNYGYWGQGTQVTVSS | high polyreactivity
36 | QVQLVESGGGLVQAGGSLRLSCAASGRTFYVYAMGWYRQAPGKERELVAAITYTGGDTYYADSVKGRFTISRDNAKNTVYLQMNSLKPEDTAVYYCAADFGPYYRFDYWGQGTQVTVSS | low polyreactivity
37 | QVQLVESGGGLVQAGGSLRLSCAASGYIFLNYAMGWYRQAPGKEREFVATITSSGGTTYYADSVKGRFTISRDNAKNTVYLQMNSLKPEDTAVYYCNADAGWYDWVYYVGRDYWGQGTQVTVSS | low polyreactivity
38 | QVQLVESGGGLVQAGGSLRLSCAASGGIIDWYVKGWYRQAPGTERELVAAISYKGGSTYYADSVKGRFTISRDYAKTTGYFQMNSLKPEETAVYDCAAGVTSPYRYVWYDYWGQGTQVTVSS | low polyreactivity
39 | QVQLVESGGGLVQAGGSLRLSCAASGRIFYPYAMGWYRQAPGKERELVAAIRRSGVDTYYADSVKGRFTISRDNAKNTVYFQMNSLKPEDTAVYYCAADPYWFFPHYDSWGQGTQVTVSS | low polyreactivity
40 | QDQLVESGGGLVQAGGSLRLSCAASGRTFYRYAMGWSRQAPGKERELVAVISTDGSSTYYADSVKGRFTISRDNAKNTVYLQMNSLKPVDTAVYYCAARAPESYVSTRAHYYWGQGTQVTVSS | high polyreactivity
41 | QVQLVESGAGLVQAGGSLPLSCAASGSTFPKYAMGWYRQAPGKEREFVSAITSSGGRTFYADSVKGRFTISRDNAKNTVYLQMNSLKPEDTAVYYCAAYYYSWSGAFIYEYWGQGTQETVSS | high polyreactivity
